Assay: yeast display, Sf9 membrane polyspecificity reagent, FACS + sequencing; frameworks hold sequencing errors
Outline: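 Genes from sorted yeast were amplified by colony PCR, read by MiSeq 2 × 250 sequencing and filtered on CDR length. These cells carried a synthetic nanobody library in Saccharomyces cerevisiae BJ5465 and were sorted by FACS into low and high (top ~1%) gates on anti-HA and streptavidin fluorescence. Polyreactivity is labelled according to the gate of origin.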

Sequence	polyreactivity (PSR sort gate)
QVQLVESGGGLDQAGGSLRLSCAASGLIFRPYDMGWYSQAPGKERELVAAISNGDSTNYADSVKGRFTISRDNAKNTDYLEMNSLKPEDTAVYYCNAAIPSWLEYEYWGQGTQVTVSS	low polyreactivity
QVQLVESGGGLVQAGGSLRFSCAASGRNFVVYAMGWYRQAPRKEREFVAAITWSGDSTTYYADSVKGRFTISRDNAMTTFYLQLKSLKPDDTAVYYCASEGDGANGGAYDYWGQGTQVNVSS	low polyreactivity
QLQLVESGGGLVQAGGSLRLSCAASGGTFYTNAMGRYRQAPGKEREFVAAISWIGGSTRYADSVKGRFTISRDNAKNTVYLQMNSLKPEDTEVYFCAAEDVFWVGEYYYEMDYWGQGTQVTVSS	high polyreactivity
QVQLVESGGGLVQAGGSLRLSCAASGIIFIRYAMGWYRQAPGKERELVAAISWRGGSTYYADSVKGRFTISRDNAKNTVYFQMNSLKPEDTAVYYCAAGYFSYRRYDYWGEGTQVTVSS	high polyreactivity
QVQLVESGGGLVQAGGSLRISCAASGRIFEVYDMGWYRQAPGKERELVAAISESDDNTYYADSVKGRFTISRDNAKNTVYLQMNSLKPEDTEVYYCNADVPGDTGWWGFDYWGQGTQVTVSS	low polyreactivity
QVQLVESGGGLVQAGGSLRLSCAASGRTFKNYAMGWYRQAPGKERELVAAISRRGSSTYYADSVKGRFTISRDNAKNTVYLQMNSLKPEDTAVYYCNAVKFTYGWLGYWGQGTQVTVSS	high polyreactivity
QVQLVESGGGLVQAGGSLRFSCAASGLIFRGYVMGWYRQAPGKERELVAAISRRGVNTYYADSVKGRFTISRDNAKNTVYLQMNSLKPEDTAVYYCAAETHVGWPAKFDYWGQGTRVTVSS	high polyreactivity
QVQLVESGGGLVQAGGSLRLICAASGNTFRYYAMGWYRQAPGKERELDAAINSRGGTTSYADSVKGRFTISRDNAKNTVYLQMNSLKPEDTAVYYCAARSYYRGTFYPYYYWGQGTQVTVSS	high polyreactivity
QVQLVESGGGLVQAGGSLRLSCAASGFIFAIYAMGWYRQAPGKERELVAAISSSGGSTYYADSVKGRFTISRDNAKNTVYLQMNSLKPEDTAVYYCNADWSLYWLDYWGQGTQVTVSS	high polyreactivity
QVPLVDSGGGLVQAGGSLRLSCAASGRSYGIYAMGWYIQAPGKERELVASITGRGGSTYYADSVKGRFTISRDNAKNTFYLQKNSLKPDDTAVYFCAARDRPYVHYSGLDYWGQGTQVTVSS	high polyreactivity
QVQLVESGGGLVQAGGSLRLSCAASGRIFLPNAMGWYRQAPGKERELVATITRGGGSTYYADSVKGRFTISRDNAKNTVYLQMNSLKPEDTAVYYCAKGYLLYQGHLPYWHRGGYWGQGTQVTVSS	high polyreactivity
QVQLVESGGGLVQAGGSLRLSCAASGLTFDVYAMGWYRQAPGKERELVAAISSIGGSTYYADSVKGRFTISRDNAKNTVYLQMNSLKPEDTAVYYCAAAISLYSYDYWGQGTQVTVSS	low polyreactivity
QVQLVESGGGLVQAGGSLRLSCAASGRTFYIYTMGWYRQAPGKERELVAAISGRGGRTYYADSVKGSFTISRDNAKNTVYLQMNSLKPEDTAVYYCARGGRVRYDYWGQGTQVTVSS	low polyreactivity
QVQLVESGGGLVQAGGSLRLTCAASGRTFGRYAMGWYRQAPGKEMDLVAAIRYTGGSTYADSVKGRFTISRDNAKNTVYLQMNRLKPEETAVYYCNRCGAFNTRNEITRYGYWGQGTQVTVSS	low polyreactivity
QVQLVESGGGLVQAGGSLRLSCAASGFIFRTYAMGWYRQAPGKERELDATITGDGSTNYADSVKGRFTISRDNAKKTVYLQMNSLKPEDTAVYYGSRDVRLSGDYWGQGTQVTVSS	low polyreactivity
QVQLVESGGGLVQAGGSLRLSCAASGRIFNRYAMGWYRQAPGKERELVAAISASGDNTYYADSVKGRFTISRDNAKKNVYLQMNSLKPEDTAVYYCAARYYTYLHFRMYYWGQGTQVTVSS	high polyreactivity
QVQLEDSGGGLVQAGGSLRLSCAASGITVFYYAMGWSRQAPGKERELVATMSWGGDSTYSADSVKGRFTISRDNAKNTVYLQMNSLKPEDTAVYYCAARYWFFRFWYDYWGQGTQVTVSS	high polyreactivity
